Reduction of the BiFC signal against flKMO-19Q data for one substance are collected here from PMC9496550.

The target of this test is full length human kynurenine 3-monooxygenase fused to the C-terminal fragment of CFP (flKMO-CC) (human) (UniProt O15229). As to the kind of experiment: split reporter (BiFC, NanoBiT); BiFC in live HEK293T cells 48 h after co-transfection, 37 °C, 5% CO2; CC + VN (KMO with HTT) or VN + VC (HTT with HTT) complementation; ScanR screening station (mean green intensity normalised by co-transfected RFP) or confocal microscopy.
UniProt O15229, sequence (O15229 whole entry, the tested form may be a part): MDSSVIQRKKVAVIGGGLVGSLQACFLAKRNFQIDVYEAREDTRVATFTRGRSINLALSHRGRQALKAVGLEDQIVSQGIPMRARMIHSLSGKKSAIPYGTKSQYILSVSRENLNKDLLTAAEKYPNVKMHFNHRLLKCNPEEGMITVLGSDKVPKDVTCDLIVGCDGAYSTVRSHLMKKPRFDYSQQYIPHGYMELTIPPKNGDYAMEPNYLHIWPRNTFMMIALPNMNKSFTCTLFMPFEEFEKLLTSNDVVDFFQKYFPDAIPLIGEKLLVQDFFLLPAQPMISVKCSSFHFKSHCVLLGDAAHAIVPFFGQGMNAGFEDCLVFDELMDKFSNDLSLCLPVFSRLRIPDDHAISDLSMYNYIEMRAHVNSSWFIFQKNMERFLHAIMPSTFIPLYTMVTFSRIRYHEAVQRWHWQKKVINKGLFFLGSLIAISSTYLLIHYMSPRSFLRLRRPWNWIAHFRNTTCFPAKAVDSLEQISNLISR

Take “HTT exon 1 fragment with 97 glutamines fused to the N-terminal half of Venus (HTT97Q-VN) (domain or fragment)”: the reduction of the BiFC signal against flKMO-19Q turned out to be 50%.
